Target: CCR-2 (Homo sapiens, UniProt P41597)
Experiment: Cold competition ligand binding to hCCR-2 using 125I-human MCP-1
Conditions: 125I-human MCP-1, n=8

Chain of CCR-2 (P41597 whole entry): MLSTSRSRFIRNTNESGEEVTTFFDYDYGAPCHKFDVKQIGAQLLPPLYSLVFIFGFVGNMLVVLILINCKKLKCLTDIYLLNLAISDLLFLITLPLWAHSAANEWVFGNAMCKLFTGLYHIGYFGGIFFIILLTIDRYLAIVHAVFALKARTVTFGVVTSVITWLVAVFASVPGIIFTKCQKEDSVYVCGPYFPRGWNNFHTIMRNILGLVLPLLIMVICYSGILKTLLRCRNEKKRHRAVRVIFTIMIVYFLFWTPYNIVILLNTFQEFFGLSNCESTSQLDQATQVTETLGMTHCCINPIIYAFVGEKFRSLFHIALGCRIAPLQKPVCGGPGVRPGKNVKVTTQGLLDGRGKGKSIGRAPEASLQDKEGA

Kd: 0.91 nM
Substance: mouse MCP-1: mouse chemokine MCP-1, major ligand of CCR-2
